Experimental data published in paper doi:10.1101/2022.04.02.486822 (bioRxiv, 2022).

Target: the molecule itself
Assay: crystal structure

B1: E. coli glyoxylate reductase/hydroxypyruvate reductase A (EcGhrA), wild type, His6-tagged (enzyme, UniProt P75913 1-312, looked up)
chain: MDIIFYHPTFDTQWWIEALRKAIPQARVRAWKSGDNDSADYALVWHPPVEMLAGRDLKAVFALGAGVDSILSKLQAHPEMLNPSVPLFRLEDTGMGEQMQEYAVSQVLHWFRRFDDYRIQQNSSHWQPLPEYHREDFTIGILGAGVLGSKVAQSLQTWRFPLRCWSRTRKSWPGVQSFAGREELSAFLSQCRVLINLLPNTPETVGIINQQLLEKLPDGAYLLNLARGVHVVEDDLLAALDSGKVKGAMLDVFNREPLPPESPLWQHPRVTITPHVAAITRPAEAVEYISRTIAQLEKGERVCGQVDRARGY
- binding result: binds
